Results published in PMC7034192.

Experiments:
[1] = biological target: M1R L131A (UniProt P11229)
[2] = biological target: M2R L129A (UniProt P08172)
UniProt P08172, sequence (P08172 whole entry L129A): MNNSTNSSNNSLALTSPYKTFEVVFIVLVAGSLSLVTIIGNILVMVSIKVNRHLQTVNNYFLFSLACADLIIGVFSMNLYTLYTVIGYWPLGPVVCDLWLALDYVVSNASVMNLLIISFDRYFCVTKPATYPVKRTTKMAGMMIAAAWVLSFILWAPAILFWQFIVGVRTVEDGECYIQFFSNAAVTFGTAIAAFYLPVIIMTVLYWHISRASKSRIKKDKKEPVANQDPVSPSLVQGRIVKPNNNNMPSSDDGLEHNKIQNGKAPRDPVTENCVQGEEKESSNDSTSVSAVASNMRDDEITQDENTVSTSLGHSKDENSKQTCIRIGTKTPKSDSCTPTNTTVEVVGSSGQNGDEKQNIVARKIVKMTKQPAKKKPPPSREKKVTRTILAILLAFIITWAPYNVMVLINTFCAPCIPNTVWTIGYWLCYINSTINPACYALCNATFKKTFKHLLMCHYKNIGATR

Substance	coupling with G11, percent of wild type (fig. S10) (% of wild type) [1]	coupling to GoA, percent of wild type (fig. S10) (% of wild type) [2]
G_(11iN) heterotrimer (Gα_(11iN), Gβ1, Gγ2) (from UniProt P63096 1-29; P29992 36-359; P62873 2-340; P59768 1-71) (complex)	17	
G_(oAiN) heterotrimer (Gα_(oAiN), Gβ1, Gγ2) (from UniProt P09471 1-354; P62873 2-340; P59768 1-71) (complex)		49
